Measured values: the Human Domainome abundance scans (Beltran et al. 2025)

B1: TGF-beta-activated kinase 1 and MAP3K7-binding protein 3, residues 12 to 50; numbered along this chain, Q8N5C8 (parent)
chain: VLHDLRQRFPEIPEGVVSQCMLQNNNNLEACCRALSQES
B2: Tumor protein 63, residues 545 to 610; numbered along this chain, Q9H3D4 (parent)
chain: TDCSIVSFLARLGCSSCLDYFTTQGLTTIYQIEHYSMDDLASLKIPEQFRHAIWKGILDHRQLHEF

Variants of: B1
Assay: abundance fitness (aPCA) (normalised: wild type 0, dead -1); higher = more abundant; growth selection in yeast, the domain comes from the species named
Details: Homo sapiens

Abundance fitness, by site and new letter:
S36: Y -0.489 | W -0.571 | R -0.031 | V -0.365 | M -0.095 | L -0.186
Q37: A 0.084 | F -0.384 | V -0.122 | E 0.102 | N 0.151 | T -0.05 | R -0.003 | H -0.162 | L 0.041 | W -0.372 | M 0.043 | Y -0.345 | I -0.107 | K 0.107 | C -0.129 | D -0.042 | P -0.537 | S -0.014 | G 0.009
E38: M 0.224 | H 0.11 | T -0.118 | Y 0.093 | G -0.069 | F 0.109 | K 0.014 | L 0.14 | S -0.046 | R 0.1 | C 0.058 | Q 0.145 | D -0.045 | P -0.029 | W 0.264 | V -0.073
S39: Y -0.002 | F -0.213 | G 0.001 | E -0.104 | Q 0.039 | A -0.255 | T 0.249 | K 0.052 | R 0.121 | P -0.041 | W -0.137 | L -0.045 | C -0.083 | M -0.077

Variants of: B2
Assay: as above
Details: Homo sapiens

Abundance fitness, by site and new letter:
V6: L -0.007 | W -0.073 | G -0.032 | Y -0.11 | D -0.013 | M -0.017 | I -0.034 | K 0.009 | F -0.06 | S 0.003 | T 0.016 | N -0.031 | R -0.012 | E -0.067 | P -0.077 | C -0.111 | A 0.028
S4: P -0.17 | C -0.16 | G -0.104 | W -0.224 | F -0.158 | T -0.04 | K -0.075 | M -0.063 | L -0.038 | D -0.05 | E -0.066 | H -0.114 | Q -0.078 | Y -0.164 | V -0.632
T1: N -0.04 | H -0.361 | I -0.006 | C -0.063 | F -0.034 | G -0.027 | K -0.122 | M -0.041 | Q -0.033 | D -0.039 | P -0.458 | A -0.064 | Y -0.074 | S -0.047 | R -0.199 | E -0.021 | W -0.047 | V -0.058
S7: C -0.026 | D -0.056 | G -0.045 | E -0.024 | H -0.069 | M -0.108 | L -0.137 | P -0.113 | N -0.006 | F -0.082 | K -0.028 | I -0.234
C3: N -0.021 | W -0.082 | G -0.069 | Y 0 | H -0.08 | M -0.005 | K -0.075 | T -0.015 | L -0.033 | V -0.15 | S -0.011 | F -0.018 | D -0.043 | R -0.051 | I -0.029 | Q -0.031 | A -0.098
D2: A -0.147 | V -0.22 | L -0.338 | G -0.11 | H -0.17 | F -0.184 | T -0.185 | Q -0.127 | N -0.053 | S -0.101 | P -0.132 | C -0.19 | R -0.202 | K -0.099 | E -0.079 | Y -0.182 | W -0.275
I5: D -0.997 | G -0.878 | Y -0.971 | L -0.005 | H -0.647 | N -0.915 | K -0.921 | R -1.01 | E -0.976 | Q -0.973 | S -0.856 | F -0.362 | M -0.021 | P -1.04 | T -0.479 | V -0.096
